Results reported in patent publication US20250034601.

Columns and labels:
[1] = biological target: T1, MBP-tagged PhBSβ (beta subunit of Petunia hybrida benzaldehyde synthase)
T1 chain: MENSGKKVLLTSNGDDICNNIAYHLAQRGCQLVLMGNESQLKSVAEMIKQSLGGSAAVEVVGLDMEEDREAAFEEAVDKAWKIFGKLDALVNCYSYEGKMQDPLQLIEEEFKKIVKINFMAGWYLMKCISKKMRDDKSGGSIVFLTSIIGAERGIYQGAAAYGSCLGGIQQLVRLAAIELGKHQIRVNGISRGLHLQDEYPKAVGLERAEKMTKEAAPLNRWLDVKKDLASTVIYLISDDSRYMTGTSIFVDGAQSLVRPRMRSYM

[2] = biological target: T2, MBP-tagged AtBSβ (beta subunit of Arabidopsis thaliana benzaldehyde synthase)
T2 chain: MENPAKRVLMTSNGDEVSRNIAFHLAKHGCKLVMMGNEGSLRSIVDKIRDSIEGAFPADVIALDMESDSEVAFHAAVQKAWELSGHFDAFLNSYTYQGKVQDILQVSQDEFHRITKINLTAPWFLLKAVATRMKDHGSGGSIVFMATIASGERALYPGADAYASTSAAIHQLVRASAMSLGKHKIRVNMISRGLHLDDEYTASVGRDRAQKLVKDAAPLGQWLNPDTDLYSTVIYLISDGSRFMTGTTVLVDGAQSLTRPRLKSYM

[3] = biological target: T3, MBP-tagged SlBSβ (beta subunit of Solanum lycopersicum benzaldehyde synthase)
T3 chain: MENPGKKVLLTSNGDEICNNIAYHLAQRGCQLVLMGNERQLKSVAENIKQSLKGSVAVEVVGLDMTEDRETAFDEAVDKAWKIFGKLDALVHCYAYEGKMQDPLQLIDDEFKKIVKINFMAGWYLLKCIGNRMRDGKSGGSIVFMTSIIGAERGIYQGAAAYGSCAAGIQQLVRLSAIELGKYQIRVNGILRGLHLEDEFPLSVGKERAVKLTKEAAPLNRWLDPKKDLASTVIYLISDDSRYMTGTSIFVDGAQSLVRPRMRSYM

[4] = biological target: T4, MBP-tagged PdBSβ (beta subunit of Prunus dulcis benzaldehyde synthase)
T4 chain: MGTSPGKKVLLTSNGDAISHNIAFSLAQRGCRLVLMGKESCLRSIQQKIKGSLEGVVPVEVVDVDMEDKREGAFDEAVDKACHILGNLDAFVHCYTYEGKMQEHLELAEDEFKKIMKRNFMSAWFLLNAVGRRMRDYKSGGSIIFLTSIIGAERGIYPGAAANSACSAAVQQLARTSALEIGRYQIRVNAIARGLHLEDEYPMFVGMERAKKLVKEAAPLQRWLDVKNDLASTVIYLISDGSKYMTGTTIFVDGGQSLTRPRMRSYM

B1: MBP-PhBSα (maltose binding protein-tagged alpha subunit of Petunia hybrida benzaldehyde synthase) (protein)
chain: MEKQTQARFLEPWRDLKGKVVMVTGASSGIGLDLCLDLAKAGCKIIAAARRVDRLKSLCNQINAAADDDDDNNRAVAVELDVSANGDAIEAAVKEAWGAFGRIDALVNNAGVRGTVHSPLELTEEECHNTFRTNLTGTWLVSKYVCKFMRDAKQGGSVINISSIAGLNRGQLPGGLAYVSSKGAVNMVTKVMALELGVDKIRVNSISPGLFKSEITQGLIQKEWLNNVAMRTIPLRTHGNSADPALTSVVRYLIHDSSEYVSGNLFIVDAGATLPGVPIFSSL
- benzaldehyde synthase activity (benzoyl-CoA + NADPH, GC-MS) [1]: Neither of the two purified recombinant proteins displayed benzaldehyde synthase activity when tested alone ... however, benzaldehyde was efficiently formed when the two subunit proteins were mixed in equal amounts (e.g., a 1:1 ratio)
- BS activity of cross-species heterodimers (subunits mixed 1:1) [2]: only the AtBSβ subunit was not able to produce active enzymes upon interaction with PhBSα and SlBSα
- BS activity of cross-species heterodimers (subunits mixed 1:1) [3]: interactions of PdBSβ and SlBSβ with PhBSα resulted in hybrid enzymes with activities almost identical to that of PhBS
- BS activity of cross-species heterodimers (subunits mixed 1:1) [4]: interactions of PdBSβ and SlBSβ with PhBSα resulted in hybrid enzymes with activities almost identical to that of PhBS

B2: MBP-tagged AtBSα (alpha subunit of Arabidopsis thaliana benzaldehyde synthase) (protein)
chain: MANQVADHLEPWRHLHGKVVMVTGASSGLGREFCLDLAKAGCRIVAAARRIDRLQSVCDEINQLTVTAPSSSSSSSSVNGPGSSRAVAVELDISADGPAIEKSVNKAWDAFGRIDALVNNAGVRGNVSSSLELSEEEWNNVFKTNLTGSWLVSKYVSIRMRDADQGGSIINVSSIAGLHRGYLPGAVAYNCSKAGVNTLAKVMAMELGVHKIRVNAISPGLFRSEITEGLMKKDWLHNVAMKTVPLRTFGTSDPALTSLVRYLVHDSSEYVSGNVYIVDAGATLPGVPIFSAL
- BS activity of hybrid enzyme relative to AtBS [1]: interactions of the three tested β subunits with AtBSα promoted activities of hybrid proteins
- benzaldehyde synthase activity (GC-MS) [2]: benzaldehyde synthases from all three organisms (i.e., Solanum lycopersicum, Prunus dulcis, and Arabidopsis thaliana) showed activity only when two purified recombinant subunits were combined
- BS activity of hybrid enzyme relative to AtBS [3]: increasing activity from 4.6- to 7.8-fold in AtBSα-SlBSβ and AtBSα-PdBSβ, respectively, relative to AtBS
- BS activity of hybrid enzyme [4]: the AtBSα-PdBSβ hybrid was as active as PdBS
- BS activity of hybrid enzyme relative to AtBS [4]: increasing activity from 4.6- to 7.8-fold in AtBSα-SlBSβ and AtBSα-PdBSβ, respectively, relative to AtBS

B3: MBP-tagged PdBSα (alpha subunit of Prunus dulcis benzaldehyde synthase) (protein)
chain: MANQVADHLEPWRHLHGKVVMVTGASSGLGREFCLDLAKAGCRIVAAARRIDRLQSVCDEINQLTVTAPSSSSSSSSVNGPGSSRAVAVELDISADGPAIEKSVNKAWDAFGRIDALVNNAGVRGNVSSSLELSEEEWNNVFKTNLTGSWLVSKYVSIRMRDADQGGSIINVSSIAGLHRGYLPGAVAYNCSKAGVNTLAKVMAMELGVHKIRVNAISPGLFRSEITEGLMKKDWLHNVAMKTVPLRTFGTSDPALTSLVRYLVHDSSEYVSGNVYIVDAGATLPGVPIFSAL
- BS activity of hybrid enzyme relative to PdBS [1]: the activities of hybrid enzymes comprising PdBSα were up to 2.5-fold lower than that of PdBS enzyme
- BS activity of hybrid enzyme relative to PdBS [3]: the activities of hybrid enzymes comprising PdBSα were up to 2.5-fold lower than that of PdBS enzyme
- benzaldehyde synthase activity (GC-MS) [4]: benzaldehyde synthases from all three organisms (i.e., Solanum lycopersicum, Prunus dulcis, and Arabidopsis thaliana) showed activity only when two purified recombinant subunits were combined

B4: MBP-tagged SlBSα (alpha subunit of Solanum lycopersicum benzaldehyde synthase) (protein)
chain: METHAKSVRQLEPWGELAGKVVMVTGASSGIGRDFCSDLSKAGCRIIAAARRIDRLQSLCDEINSNSSNGSTKSSQDLRAVAIELDVSANGSAIEAAVQKAWDAFGRIDGLVNNAGFRGSVLSPLELSEEEWEKIHKTNLRGAWLVTKYVCMHMRAANQGGSIINISSIAGINRGQLPGSLAYTSSKEALNSITKVLALELGPYKIRVNSISPGLFKSEITEGLIQKDWIKNIELRTIPLRTHGTSHPALTSVVRYLIHDSSEYVSGNMFIVDAGATLPGVPIFSSL
- BS activity of hybrid enzyme relative to SlBS [1]: activities of SlBSα-PhBSβ and SlBSα-PdBSβ were 6.5-fold lower and 2.7-fold higher, respectively, as compared with SlBS
- BS activity of cross-species heterodimers (subunits mixed 1:1) [2]: only the AtBSβ subunit was not able to produce active enzymes upon interaction with PhBSα and SlBSα
- benzaldehyde synthase activity (GC-MS) [3]: benzaldehyde synthases from all three organisms (i.e., Solanum lycopersicum, Prunus dulcis, and Arabidopsis thaliana) showed activity only when two purified recombinant subunits were combined
- BS activity of hybrid enzyme relative to SlBS [4]: activities of SlBSα-PhBSβ and SlBSα-PdBSβ were 6.5-fold lower and 2.7-fold higher, respectively, as compared with SlBS
